Experimental findings from PMC6659695 are described below.

The target of assay [1] is microtubules (paclitaxel-stabilized, polymerized from tubulin). In words: optical tweezers unbinding-force assay (constant-pulling); motor held by its GFP on anti-GFP Fab-coated ~1-μm beads in an optical trap, MTs immobilized on the coverslip (biotin-streptavidin) and swept past the bead; single-molecule level; no nucleotide (apo, residual ATP 37.5 nM); non-reducing conditions; 30 mM HEPES, 2 mM MgAc2, 1 mM EGTA, 20 μM paclitaxel, pH 7.2; theoretical loading rate 5.6 pN/s; primary unbinding events only.
Target sequence in this assay (P02550 whole entry, chain 1 of 2): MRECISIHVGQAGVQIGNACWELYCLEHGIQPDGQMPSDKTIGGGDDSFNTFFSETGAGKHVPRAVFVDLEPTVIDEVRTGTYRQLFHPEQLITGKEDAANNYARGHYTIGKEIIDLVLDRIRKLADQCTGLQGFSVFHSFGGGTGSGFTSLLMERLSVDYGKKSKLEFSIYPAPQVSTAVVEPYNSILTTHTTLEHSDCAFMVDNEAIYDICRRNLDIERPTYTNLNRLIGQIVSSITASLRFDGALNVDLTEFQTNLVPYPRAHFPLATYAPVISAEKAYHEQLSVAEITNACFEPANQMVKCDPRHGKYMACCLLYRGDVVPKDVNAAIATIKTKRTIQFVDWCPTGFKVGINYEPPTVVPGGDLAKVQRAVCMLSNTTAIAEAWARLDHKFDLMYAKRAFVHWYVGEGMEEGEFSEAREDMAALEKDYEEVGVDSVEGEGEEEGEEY
Target sequence in this assay (P02554 whole entry, chain 2 of 2, further chain): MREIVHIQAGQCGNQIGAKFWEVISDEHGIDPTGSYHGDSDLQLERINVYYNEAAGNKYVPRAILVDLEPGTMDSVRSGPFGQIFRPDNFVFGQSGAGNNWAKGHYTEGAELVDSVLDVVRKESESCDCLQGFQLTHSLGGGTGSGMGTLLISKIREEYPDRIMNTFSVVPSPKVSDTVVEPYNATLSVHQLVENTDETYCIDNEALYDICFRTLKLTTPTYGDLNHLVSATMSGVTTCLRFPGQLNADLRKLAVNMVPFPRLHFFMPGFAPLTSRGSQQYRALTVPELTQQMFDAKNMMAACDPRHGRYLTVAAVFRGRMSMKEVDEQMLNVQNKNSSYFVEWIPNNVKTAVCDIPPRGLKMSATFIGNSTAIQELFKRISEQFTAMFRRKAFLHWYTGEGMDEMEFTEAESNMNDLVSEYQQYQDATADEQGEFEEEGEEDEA

The target is the same in assay [2]. In words: single-molecule TIRF dwell-time measurement; zero load; labeled single heads binding to and leaving surface-immobilized Cy5-labeled MTs, 100 ms per frame; apo state (2 U/ml apyrase); 30 mM HEPES, 2 mM MgAc2, 1 mM EGTA, pH 7.2; unbinding rate from an exponential fit of the CDF of dwell times.
Target sequence in this assay (chain, as listed by the source, chain 1 of 2): as the sequence (P02550 whole entry, chain 1 of 2) above
Target sequence in this assay (chain, as listed by the source, chain 2 of 2): as the sequence (P02554 whole entry, chain 2 of 2, further chain) above
For assay [3] the target is unchanged. As to the kind of experiment: optical tweezers unbinding-force assay (constant-pulling); as a1 but with 1 mM ATP and TCEP (2 mM by the legend) to cleave the disulfide bonds of the stalk helices.
Target sequence in this assay (P02550 whole entry, chain 1 of 2): as the sequence (P02550 whole entry, chain 1 of 2) above
Target sequence in this assay (P02554 whole entry, chain 2 of 2, further chain): as the sequence (P02554 whole entry, chain 2 of 2, further chain) above
The target is the same in assay [4]. In words: optical tweezers unbinding-force assay (constant-pulling); as a1 but with 1 mM ATP; non-reducing conditions.
Target sequence in this assay (chain, as listed by the source, chain 1 of 2): as the sequence (P02550 whole entry, chain 1 of 2) above
Target sequence in this assay (chain, as listed by the source, chain 2 of 2): as the sequence (P02554 whole entry, chain 2 of 2, further chain) above

Some results are limits rather than exact numbers.

Take “GFP-Dyn1_(331kDa), tail-truncated monomeric S. cerevisiae cytoplasmic dynein motor domain (wild type) (from UniProt P36022 1219-4092) (domain or fragment)”: the mean unbinding force, forward load in assay [1] is 1.6 pN. Consider “Dyn1_(331kDa)-α CL (K3077C, A3250C; stalk helices disulfide cross-linked in the α-registry) (from UniProt P36022 1219-4092) (domain or fragment)”, for which the mean unbinding force, forward load in assay [1] stood at 2.2 pN.

In assay [2], “SNAP-tagged Dyn1_(331kDa)-β CL (β-mutant heads labeled via an inserted N-terminal SNAP-tag), P36022 1219-4092” came in with an average MT-bound time of 290 ms. In assay [3], “AAA1 E/Q Dyn1_(331kDa)-α CL (AAA1 Walker B E/Q; K3077C, A3250C) (from UniProt P36022 1219-4092) (domain or fragment)” returned a mean unbinding force (both directions) of less than 1 pN. In assay [1], “Dyn1_(331kDa)-β CL (I3076C, L3247C; stalk helices disulfide cross-linked in the β-registry) (from UniProt P36022 1219-4092) (domain or fragment)” returned a mean unbinding force, backward load of 0.7 pN and a mean unbinding force, forward load of 0.7 pN. In turn, “AAA1 E/Q Dyn1_(331kDa) (E/Q mutation in the AAA1 Walker B motif), P36022 1219-4092” returned a mean unbinding force (both directions) in assay [4] of less than 1 pN.
